T1: purified human glycophorin A protein (Sigma, cat # G5017) (human, UniProt P02724 20-150)
T1 construct: mature; also called Sigma hGPA; Sigma GPA
T1 sequence (looked up): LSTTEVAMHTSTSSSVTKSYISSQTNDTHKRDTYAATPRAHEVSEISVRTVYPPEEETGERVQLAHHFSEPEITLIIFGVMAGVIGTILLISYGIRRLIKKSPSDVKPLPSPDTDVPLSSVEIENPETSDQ

T2: human glycophorin A in the red blood cell membrane (human, UniProt P02724 20-150)
T2 construct: whole, on cells; used for intact RBC, isolated RBC membranes and transfected cells; the assay field tells which; also called GPA; hGPA
T2 sequence (looked up): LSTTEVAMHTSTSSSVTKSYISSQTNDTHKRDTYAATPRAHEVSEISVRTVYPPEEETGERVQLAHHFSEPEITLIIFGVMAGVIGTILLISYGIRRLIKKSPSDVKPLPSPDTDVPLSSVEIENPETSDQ

T3: recombinant human GPA ectodomain (human, UniProt P02724 20-91)
T3 construct: also called recombinant hGPA ECD; recGPA
T3 sequence: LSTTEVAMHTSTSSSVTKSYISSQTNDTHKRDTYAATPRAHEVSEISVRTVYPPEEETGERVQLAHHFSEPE


Assays:
[1] = target: T1, purified human glycophorin A protein …; experiment: ELISA, native hGPA
[2] = target: T2, human glycophorin A in the red blood …; experiment: ELISA, human RBC membranes;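 also: antibodies bound to isolated human red blood cell membrane ghosts coated on 96-well plates, tested 1.5 h at room temperature, bound antibody quantified with a detection antibody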
[3] = target: T3, recombinant human GPA ectodomain; experiment: ELISA, rec hGPA ectodomain

Row | Binder | binding by ELISA relative to parental [1] | binding by ELISA relative to parental [2] | binding by ELISA relative to parental [3]
1 | TPP-5316 (Fab, V domains shown, also called VH: (E1Q)) VH: QVQLVQSGAEVKKPGASVKVSCKASGYTFTTYTIHWVRQAPGQGLEWIGYINPSSDYTRYNPKFKDRVTLTTDKSTSTAYMELRSLRSDDTAVYYCQTGTRDYWGQGTTVTVSS VL: DIQLTQSPSFLSASVGDRVTITCSAASSVSYIYWFQQKPGKAPKLLIYSTSTLPSGVPSRFSGSGSGTEYTLTISSLQPEDFATYYCHQRNSFPFTFGQGTKLEIKR | 1.33 | 1.16 | 1.29
2 | TPP-5317 (Fab, V domains shown, also called VH: (T31S)) VH: EVQLVQSGAEVKKPGASVKVSCKASGYTFTSYTIHWVRQAPGQGLEWIGYINPSSDYTRYNPKFKDRVTLTTDKSTSTAYMELRSLRSDDTAVYYCQTGTRDYWGQGTTVTVSS VL: DIQLTQSPSFLSASVGDRVTITCSAASSVSYIYWFQQKPGKAPKLLIYSTSTLPSGVPSRFSGSGSGTEYTLTISSLQPEDFATYYCHQRNSFPFTFGQGTKLEIKR | 1.36 | 0.68 | 1.34
3 | TPP-5319 (Fab, V domains shown, also called VH: (I34M)) VH: EVQLVQSGAEVKKPGASVKVSCKASGYTFTTYTMHWVRQAPGQGLEWIGYINPSSDYTRYNPKFKDRVTLTTDKSTSTAYMELRSLRSDDTAVYYCQTGTRDYWGQGTTVTVSS VL: DIQLTQSPSFLSASVGDRVTITCSAASSVSYIYWFQQKPGKAPKLLIYSTSTLPSGVPSRFSGSGSGTEYTLTISSLQPEDFATYYCHQRNSFPFTFGQGTKLEIKR | 0.99 | 0.85 | 1.08

Second part, the binder after the results:

Row | binding by ELISA relative to parental [1] | binding by ELISA relative to parental [2] | binding by ELISA relative to parental [3] | Binder
4 | – | 0.2 | 0.04 | TPP-5353 (Fab, V domains shown, also called VL: (R90L)) VH: EVQLVQSGAEVKKPGASVKVSCKASGYTFTTYTIHWVRQAPGQGLEWIGYINPSSDYTRYNPKFKDRVTLTTDKSTSTAYMELRSLRSDDTAVYYCQTGTRDYWGQGTTVTVSS VL: DIQLTQSPSFLSASVGDRVTITCSAASSVSYIYWFQQKPGKAPKLLIYSTSTLPSGVPSRFSGSGSGTEYTLTISSLQPEDFATYYCHQLNSFPFTFGQGTKLEIKR
5 | 1.24 | 0.99 | 1.35 | TPP-5320 (Fab, V domains shown, also called VH: (I48M)) VH: EVQLVQSGAEVKKPGASVKVSCKASGYTFTTYTIHWVRQAPGQGLEWMGYINPSSDYTRYNPKFKDRVTLTTDKSTSTAYMELRSLRSDDTAVYYCQTGTRDYWGQGTTVTVSS VL: DIQLTQSPSFLSASVGDRVTITCSAASSVSYIYWFQQKPGKAPKLLIYSTSTLPSGVPSRFSGSGSGTEYTLTISSLQPEDFATYYCHQRNSFPFTFGQGTKLEIKR
6 | 0.12 | 0.27 | – | TPP-5349 (Fab, V domains shown, also called VL: (T50A)) VH: EVQLVQSGAEVKKPGASVKVSCKASGYTFTTYTIHWVRQAPGQGLEWIGYINPSSDYTRYNPKFKDRVTLTTDKSTSTAYMELRSLRSDDTAVYYCQTGTRDYWGQGTTVTVSS VL: DIQLTQSPSFLSASVGDRVTITCSAASSVSYIYWFQQKPGKAPKLLIYSASTLPSGVPSRFSGSGSGTEYTLTISSLQPEDFATYYCHQRNSFPFTFGQGTKLEIKR
7 | – | 0.42 | 0.03 | TPP-5346 (Fab, V domains shown, also called VL: (Y33A)) VH: EVQLVQSGAEVKKPGASVKVSCKASGYTFTTYTIHWVRQAPGQGLEWIGYINPSSDYTRYNPKFKDRVTLTTDKSTSTAYMELRSLRSDDTAVYYCQTGTRDYWGQGTTVTVSS VL: DIQLTQSPSFLSASVGDRVTITCSAASSVSYIAWFQQKPGKAPKLLIYSTSTLPSGVPSRFSGSGSGTEYTLTISSLQPEDFATYYCHQRNSFPFTFGQGTKLEIKR

From patent publication US20190359687A1 (Bayer, published 2019)
